{
  "source": "patent US20150307546A1",
  "biological_target": "horseradish peroxidase (HRP) (horseradish) (UniProt P00433)",
  "sequence (P00433 31-338)": "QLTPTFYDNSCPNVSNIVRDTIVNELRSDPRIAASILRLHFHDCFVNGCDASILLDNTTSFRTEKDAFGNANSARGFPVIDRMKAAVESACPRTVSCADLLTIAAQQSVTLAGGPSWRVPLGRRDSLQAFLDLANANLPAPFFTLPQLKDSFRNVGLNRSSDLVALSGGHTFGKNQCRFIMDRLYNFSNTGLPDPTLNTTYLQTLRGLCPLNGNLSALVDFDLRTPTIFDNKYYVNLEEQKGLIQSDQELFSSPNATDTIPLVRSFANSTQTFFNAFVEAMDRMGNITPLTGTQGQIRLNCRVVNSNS",
  "experiment": "affinity precipitation at varied ligand to HRP ratio; peroxidase activity assay",
  "note": "Where “and” joins values, the source holds several entries; their conditions need not be identical. Equal entries are not always repeated.",
  "data": [
    {"substance": "RSL-ELP40 (fucose lectin from Ralstonia solanacearum fused by a 10 amino acid glycine rich linker to (designed binder)", "values": [
      {"measurement": "molar excess of ligand at which full recovery was approached (mol ligand per mol HRP)", "result": "15 and 20"}
    ]}
  ]
}
